The source of these data is US20220168440A1, “ANTIBODY-PYRROLOBENZODIAZEPINE DEPRIVATIVE CONJUGATE” (DAIICHI SANKYO COMPANY, LIMITED, priority 2019, published 2022).

The test system of experiment [1] is KPL-4 cells. The experiment is described as follows: Cell growth inhibition of drug 1 (4), CellTiter-Glo. Particulars: KPL4, 144 h; human breast cancer cell line; 6 days culture; read-out: anticellular effect IC50 on KPL-4 cells. The class given is cell-based. The method, then:
KPL-4 cells (Dr. Junichi Kurebayashi, Kawasaki Medical School, British Journal of Cancer, (1999) 79(5/6). 707-717), a human breast cancer cell line, were prepared with RPMI1640 Medium (Thermo Fisher Scientific; hereinafter, referred to as RPMI medium) containing 10% fetal bovine serum (Hyclone) to reach 6.25×10^3 cells/mL, and 80 μL portions of them were added to a 96-well cell culture microplate. After addition of the cells, the cells were cultured at 37° C. and 5% CO2 overnight.
On the next day, 20 μL portions of drug 1 diluted with RPMI medium to 100 nM, 20 nM, 4 nM, 0.8 nM, 0.16 nM, 0.032 nM, 6.4 pM, 1.3 pM, and 0.26 pM were added to the microplate. To each well without any antibody-drug conjugate, 20 μL of RPMI medium was added. KPL-4 was cultured at 37° C. and 5% CO2 for 6 days. After culturing, the microplate was taken out of the incubator, and left to stand at room temperature for 30 minutes. CellTiter-Glo Luminescent Cell Viability Assay (Promega Corporation) in an amount equivalent to that of the culture solution was added, and stirred using a plate mixer. The microplate was left to stand at room temperature for 10 minutes, and thereafter the amount of emission was measured by using a plate reader (PerkinElmer). Cell survival rates were calculated by using the same formula as in Example 37.

Experiment [2] deals with T1, human CLDN3 (human, UniProt O15551 1-220).
T1 construct: whole, on cells
T1 sequence (looked up): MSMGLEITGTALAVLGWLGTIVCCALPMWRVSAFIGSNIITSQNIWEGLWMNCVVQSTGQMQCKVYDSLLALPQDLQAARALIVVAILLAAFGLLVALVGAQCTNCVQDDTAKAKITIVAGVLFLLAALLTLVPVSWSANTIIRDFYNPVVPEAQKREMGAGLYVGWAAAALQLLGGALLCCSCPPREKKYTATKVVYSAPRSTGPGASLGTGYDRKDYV
Nature of the experiment: flow cytometry on transiently transfected 293T cells. The method, then:
(§1) Binding activity of the mouse anti-CLDN6 antibodies produced in Example 6 to human CLDN6 and its family molecules, CLDN3, CLDN4, and CLDN9, was evaluated by using a flow cytometry method. Human CLDN3/pCMV6-Entry, human CLDN4/pCMV6-Entry, human CLDN6/pCMV-Entry, human CLDN9/pCMV6-Entry, or pCMV6-Entry purchased from OriGene Technologies, Inc. was transiently transferred into 293T cells (Thermo Fisher Scientific, HCL4517) by using Lipofectamine 2000 (Thermo Fisher Scientific), and the cells were cultured under conditions of 37° C. and 5% CO₂ overnight, and then a cell suspension was prepared. […] The cells were washed twice with Dulbecco's phosphate buffered saline (Sigma-Aldrich Co. LLC) containing 5% fetal bovine serum (Hyclone) (hereinafter, referred to as 5% FBS-containing PBS), and FLUORESCEIN-CONJUGATED GOAT IGG FRACTION TO MOUSE IGG (WHOLE MOLECULE) (MP Biomedicals, Inc.) 500-fold diluted with 5% FBS-containing PBS was then added thereto, and the cells were suspended and left to stand at 4° C. for 1 hour. After washing twice with 5% FBS-containing PBS, detection was carried out by using a flow cytometer (FC500; Beckman Coulter, Inc.). Data analysis was carried out by using FlowJo (Tree Star, Inc.). […] In each graph in FIG. 40, the ordinate represents FITC fluorescence intensity indicating the amount of the binding antibody and the abscissa represents antibody concentrations.
(§2) The binding activity of the humanized anti-CLDN6 antibody produced in Example 10 to human CLDN6 and its family molecules, CLDN3, CLDN4, and CLDN9, was evaluated by using a flow cytometry method.
For orientation: A flow cytometer gives signals particle by particle.

For experiment [3], the target named is T2, human CLDN4 (human, UniProt O14493 1-209).
T2 construct: whole, on cells
T2 sequence (looked up): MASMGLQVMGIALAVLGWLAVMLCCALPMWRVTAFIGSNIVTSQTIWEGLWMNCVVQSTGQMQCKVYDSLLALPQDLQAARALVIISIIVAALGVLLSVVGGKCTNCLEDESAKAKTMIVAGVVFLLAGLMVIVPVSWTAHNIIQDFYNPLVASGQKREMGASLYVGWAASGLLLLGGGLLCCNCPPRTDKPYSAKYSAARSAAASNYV
The experiment is described as above. The method, then:
as §1, §2

The target of experiment [4] is T3, human CLDN9 (human, UniProt O95484 1-217).
T3 construct: NP_066192; It was expressed on 293T cells transiently transfected with human CLDN9/pCMV6-Entry (OriGene); also called claudin-9
T3 sequence: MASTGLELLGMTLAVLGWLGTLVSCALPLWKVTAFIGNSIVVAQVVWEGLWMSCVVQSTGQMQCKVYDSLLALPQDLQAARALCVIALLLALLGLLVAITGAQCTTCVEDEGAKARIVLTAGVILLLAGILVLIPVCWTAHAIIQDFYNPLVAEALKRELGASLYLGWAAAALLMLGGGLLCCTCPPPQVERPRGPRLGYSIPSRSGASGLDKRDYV
The experiment is described as above. The method, then:
as §1, §2

The target in experiment [5] is T4, human CLDN6 (human, UniProt P56747 1-220).
T4 construct: Four-transmembrane protein, NP_067018; It was also expressed on CHO-K1 cells by cDNA transfection; In the immunoprecipitation it was the endogenous protein from NTERA-2 cell lysate; also called hCLDN6; claudin-6
T4 sequence: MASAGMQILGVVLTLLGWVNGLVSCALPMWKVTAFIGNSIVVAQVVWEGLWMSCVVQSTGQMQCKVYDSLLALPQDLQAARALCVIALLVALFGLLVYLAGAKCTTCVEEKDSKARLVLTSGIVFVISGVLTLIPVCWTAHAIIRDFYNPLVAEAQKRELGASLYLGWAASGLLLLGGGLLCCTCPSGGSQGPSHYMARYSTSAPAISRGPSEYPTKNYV
Nature of the experiment: immunoprecipitation from NTERA-2 cell lysate, SDS-PAGE, mass spectrometry of the 18 kDa band.

The target in experiment [6] is T5, human claudin-6 (Homo sapiens, UniProt P56747).
T5 construct: expressed in transfected cells; host or cells: CHO-K1 cells
T5 sequence (P56747 1-220): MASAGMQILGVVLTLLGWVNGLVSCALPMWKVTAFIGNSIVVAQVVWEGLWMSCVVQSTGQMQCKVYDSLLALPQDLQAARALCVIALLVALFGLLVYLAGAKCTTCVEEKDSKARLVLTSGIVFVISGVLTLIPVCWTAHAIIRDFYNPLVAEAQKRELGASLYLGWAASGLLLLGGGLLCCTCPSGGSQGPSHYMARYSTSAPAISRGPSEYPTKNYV
Nature of the experiment: FACS analysis of 218B1/218C7 antibodies on human claudin-6-expressing CHO-K1 cells. Particulars: forced expression by cDNA transfection. The format is binding. The method, then:
Since the antigen for the 218B1 antibody and 218C7 antibody was estimated to be claudin-6 from the mass spectrometry, forced expression analysis by cDNA transfection was carried out.

For experiment [7], the system named is BxPC-3. The experiment is described as follows: Internalization activity by Mab-ZAP (saporin-conjugated anti-mouse IgG), cell survival. Particulars: human CLDN6-negative pancreatic cancer cell line BxPC-3; antibody 1 nM, Mab-ZAP 0.5 nM; 5 days. The class given is cell-based. The method, then: (§3) Internalization activity of the mouse anti-CLDN6 antibodies B1 and C7 was evaluated by using the anti-mouse IgG reagent, to which a toxin that inhibits protein synthesis (saporin) had been conjugated, Mab-ZAP (Advanced Targeting Systems). In this evaluation, Mab-ZAP is incorporated into cells in a manner depending on the internalization activity of a mouse anti-CLDN6 antibody, and saporin, which inhibits protein synthesis, is released in the cells to suppress cell growth.
(§4) JEG-3(ATCC HTB-36), a human choriocarcinoma cell line of human CLDN6-positive cells, NIH:OVCAR-3 (ATCC HTB-161), a human ovarian cancer cell line of human CLDN6-positive cells, or BxPC-3 (ATCC CRL-1687), a human pancreatic cancer cell line of human CLDN6-negative cells, was seeded in a 96-well cell culture microplate at 2×10^3 cells/well, and cultured under conditions of 37° C. and 5% CO2 overnight. On the next day, a mixed solution obtained by mixing each mouse anti-CLDN6 antibody or mouse IgG1 antibody (R&D Systems, Inc.) to a final concentration of 1 nM, with Mab-ZAP (final concentration: 0.5 nM) or AffiniPure Goat Anti-Mouse IgG, Fcγ Fragment Specific (Jackson ImmunoResearch Laboratories Inc.) (final concentration: 0.5 nM), without conjugated toxin, was added, and the cells were cultured under conditions of 37° C. and 5% CO2 for 5 days. The number of surviving cells was determined through quantification of ATP activity by using CellTiter-Glo Luminescent Cell Viability Assay (Promega Corporation).

The test system of experiment [8] is JEG-3. Described as above. The class given is cell-based. Conditions: human CLDN6-positive choriocarcinoma cell line JEG-3; antibody 1 nM, Mab-ZAP 0.5 nM; 5 days. The method, then: as §3, §4
The subject of experiment [9] is NIH:OVCAR-3. The description is as above. The class given is cell-based. Particulars: human CLDN6-positive ovarian cancer cell line NIH:OVCAR-3; antibody 1 nM, Mab-ZAP 0.5 nM; 5 days. The method, then:
as §3, §4

Experiment [10] concerns the target T4, human CLDN6. Nature of the experiment: FACS on CHO-K1 cells transfected with human claudin-6 cDNA.

As for `COc1ccc(C2=CN3C(=O)c4cc(OC)c(OCCCCCOc5cc6c(cc5OC)C(=O)N5CC7(CC7)C[C@H]5C=N6)cc4NC[C@@H]3C2)cc1` [Drug 1, (11a′S)-7′-Methoxy-8′-[(5-{[(11aS)-7-methoxy-2-(4-methoxyphenyl)-5-oxo-5,10,11,11a-tetrahydro-1H-pyrrolo[2,1-c][1,4]benzodiazepin-8-yl]oxy}pentyl)oxy]-1′,11a′-dihydro-5′H-spiro[cyclopropane-1,2′-pyrrolo[2,1-c][1,4]benzodiazepine]-5′-one], the IC50 in [1] was 0.01 to 0.02 nM.

B1: mouse anti-CLDN6 antibody B1 (antibody, V domains shown)
VH: EVQLQQSGPELVKPGASVKISCKTSGYTFTEYTMHWVQQSHGKSLEWIGGVNPNSGDTSYNQKFKGKATLTVDKSSSTAYMELRSLTSEDSAVYYCARPGGYDVGYYAMDYWGQGTSVTVSS
VL: DIQMTQTASSLSASLGDRVTISCRASQDINNYLNWYQQKPDGTVKLLIYFTSRLHSGVPSRFSGSGSGTHYSLTITNLEQEDIATYFCQQGYPLPWTFGGGTKLEIK
notes: Mouse monoclonal antibody purified from hybridoma 218B1 culture supernatant; a mouse IgG1 antibody was used as the control; also called B1 antibody; 218B1 antibody
Consider B1, for which the binding result in experiment [2] was “no binding (tested: 30 µg/mL (highest concentration tested))”; in experiment [3] it was “no binding (tested: 30 µg/mL (highest concentration tested))”; in experiment [4] it was “binds”; in [5] it was “binds”.

B2: C7: mouse anti-CLDN6 antibody; heavy/light chain variable regions SEQ ID NO: 25 and 23 (antibody, listed as Mus musculus, V domains shown)
VH: EVQLQQSGPELVKPGASVKISCKTSGYTFTEYTMHWVQQSHGKSLEWIGGVNPNSGDTSYNQKFKGKATLTVDKSSSTAYMELRSLTSEDSAVYYCARPGGYDVGYYAMDYWGQGTSVTVSS
VL: DIQMTQTASSLSASLGDRVTISCRASQDINNYLNWYQQKPDGTVKLLIYSTSRLHSGVPSRFSGSGSGTHYSLTITHLEQEDIATYFCQQGYPLPWTFGGGTKLEIK
modifications: amino acid sequence of variable region of C7 antibody heavy chain; amino acid sequence of variable region of C7 antibody light chain
With B2, the “FACS reaction for human claudin-6-expressing CHO-K1 cells” value in experiment [6] is on record as “strong positive reaction”. Further, the “cell growth-suppressing effect (relative survival rate) with Mab-ZAP” value was “no cell growth-suppressing effect” in experiment [7], “cell growth-suppressing effect” in [8] and “cell growth-suppressing effect” in experiment [9].

B3: mouse anti-CLDN6 antibody C7 (antibody, V domains shown)
VH: EVQLQQSGPELVKPGASVKISCKTSGYTFTEYTMHWVQQSHGKSLEWIGGVNPNSGDTSYNQKFKGKATLTVDKSSSTAYMELRSLTSEDSAVYYCARPGGYDVGYYAMDYWGQGTSVTVSS
VL: DIQMTQTASSLSASLGDRVTISCRASQDINNYLNWYQQKPDGTVKLLIYSTSRLHSGVPSRFSGSGSGTHYSLTITHLEQEDIATYFCQQGYPLPWTFGGGTKLEIK
notes: Mouse monoclonal antibody purified from hybridoma 218C7 culture supernatant; a mouse IgG1 antibody was used as the control; also called C7 antibody; 218C7 antibody
B3: the binding result in experiment [2] is listed as “no binding (tested: 30 µg/mL (highest concentration tested))”; in [3], “no binding (tested: 30 µg/mL (highest concentration tested))”; in experiment [4] it was “binds”; in experiment [10], “binds”.

As a reminder, the IC50 is the point on the concentration scale where inhibition reaches its midpoint.
